test: soluble on expression in E. coli; label from the status in PepcDB or PDB records

| Sequence | soluble on expression in E. coli |
| --- | --- |
| MGSDKIHHHHHHMDLFSASFNPHQIAPLAERMRPRTLDDYIGQSEIIGKGKLLRRAIEADRVTSLILYGPPGTGKTSLAQVIANTTSSGFVRINAVAAGVKEIREIIQTATEQLHLYGKKTLVFCDEVHRFNKGQQDALLPAVENGTITFIGATTENPFFELNSALLSRSTLFRLQPLTAEDIRSGLAQALADKERGLGNYSVSIDPEAWEHWLNFANGDLRRALNALELAVLTTPPEQGVRRITLSVAEESIQQRAMRFDKNGDNHYDIVSAFIKSMRGSDPDAALYWLAVLLESGEDPRFIVRRIIVHASEDVGLADPMVMLQAHAAANALEWVGLPEARIPIAQAVLAIATAPKSNSTIMAIDRATGYVRSHPTGQVPAHLRDANYPGAKKMGHGKNYLYPHDYPGHWVEQGYLPQEVQGENFFTPSGTGQDRDNRGKPQVIPPSE | not soluble |
| MGSDKIHHHHHHMDNLIITPNYVTEFNCVGPACEDSCCKNWTVYFDKKSYKHTISNPAFADLAKIAFVEIKESKENWASIKLDEQGACPFLTQEELCKIHQVGGEAALSYTCKTYPKKDTLVGKDKYQSLSLSCPEAARLVLFDPNAFQFQSHNGGNKKPAKPSPVWLEKSYQYSLDLLINANLDWELALLAIGLLIKTAEDASQYQIPIEELDKRHDQLKRFAESGLMAQQFEKTPYASQLQANLFVTIHSELCKINPRSGKARFGELNLAIEQACNEDNHYSIDLINQAWNQVAQPALKENPDVFERYILYYLFHNHFPGPVTQTPSQSFILLAIDCFMIRCYLSAMALKNNGINQREIILCFQVYQVIRQHRSSFVARLEELVEECGLNSISAVMTLLKTN | not soluble |
| MGSDKIHHHHHHMDPLSSSDPARLASEQRRLRLQVLGLNTVEAEATFDRIARLAASFTQSPLAMVNFINDERQMFRGMYVPSGSPDDKVSPESGGIAFDLSNLSREAPGDYGFCPHVVAQGSQLALDDVFDYPRFKGNPLVNDLGVRSYLGTPLRDNTGMILGTVCVADMKPRTWDRGLREGMQELTETLLSDFKLRDSLLAQQQELFAVFDGAPFPIMLTEGPDHLLRYANGKQGSAFGLVPQFSPGRHVLPGLEAIGVFGAMDDAFHTGQAATLARASIQTYDSHTLQDFNFLCTPVRTSPAAPISGVLTVAMNTTGQDFAGSEQRAFAANVQERFERLGAGGLPGGMPGQRAESAGYRG | not soluble |
| MGSDKIHHHHHHMDRIIEKLDHGWWVVSHEQKLWLPKGELPYGEAANFDLVGQRALQIGEWQGEPVWLVQQQRRHDMGSVRQVIDLDVGLFQLAGRGVQLAEFYRSHKYCGYCGHEMYPSKTEWAMLCSHCRERYYPQIAPCIIVAIRRDDSILLAQHTRHRNGVHTVLAGFVEVGETLEQAVAREVMEESGIKVKNLRYVTSQPWPFPQSLMTAFMAEYDSGDIVIDPKELLEANWYRYDDLPLLPPPGTVARRLIEDTVAMCRAEYE | soluble |
| MGSDKIHHHHHHMDSNIDVEILSILSEASAPVGAKIIADSLKDRGYDIGERAVRYHLKVLDENSLTKKLGYSGREITEKGIEELEKANISFRIGSVFSQVIEKLYLSDFPSKVLINTAKFEGDYKTIKEMVLRSFEAGYSVGDYLNIKKKGNTVSVETLCSITFDNFLLKNGIIPTPEYGGIVKFEDYEPVNFEGVIDFKSSSIDPLVAFIMQGKTDVIGVIENGEGLVPANFRVIPKSSEKQFETILKKDMLNSVLAYGTENVLGMNLNPEQIGVVLVGGLTPLCVPHESGYTADISAATQLKDISSMEKKTKGFLEAKKKKGKFKVTPVLSKMLSKMQTINYDIEDKKGNVVVNTAKIPIEYKEEAINALKDSYENKLAISDRLKVECDDKFLNAYTICSLTVDGVFLKNKIPVIPYYGGILEVKADKKRFIEAIDYEGTSLDPHEVFFNKADGKNYILAGIRKVPMSASEKLIELNEKLGWNSIIEIGRPNNDICGVRVEKCMFGITTIGGTNPFANIRKNNIPVEMKTLHKSIDYSELTHYDDI | not soluble |
| MGSDKIHHHHHHMDSNIFISTYHIRYGQEDSSMNKLKILFVLFTNIKTGAGTEKSLYYYLKYADISKFDITVLQTNLMPGGQRLSDSDLETIKNKAKFIEIKDYRGLLGFIRNKYLSYLLNLFILPMLLKICKYTVYHKKLKQLKDSNVIYLFNNDYSNLFSHKSVVIGSNHCAFDNLDSFSQKLIARLLSLRIILPSITAFHLFPHNVSFKEYFGNKPLILLSNGVDTDLYYPSHSQNLKTKILFVGRLEEVKGILMAIKVYNNIKKMFPVEFVIVGSGSLESEVDKLCASDTNVKHFKHVAENDLANIYRSCDIFLYPTQGDSYALVVLEALSSGLKVVTTVNIYRVYNDFIRFNVIKFADFDEKSLTQALLDIKNTVINKNEIHNYIEKNYSWKKVSENLFNLMYNLAVKN | not soluble |
| MGSDKIHHHHHHMDSVDLEVLRSSVRWQQEGHRVLLVTVVRTWGSSPRPEGAMLAVRDDGLVVGSVSGGCIEDDLIDRVRRLGITADHPESVKYGISAEEAHRFGLPCGGTIELVTEPLKPASGIAELLDAVENGRLATRTLDMATGTATLGPAEATDGLVFDGNSLLTIHGPRYRMLVIGAGQLSKYLCQIAVGLGFQVTVCDPREEYTETWDIPGVTMVRTMPDDTVTDMKLDERCAVIALTHDPKLDDLALMEALRTRAFYVGALGSRRNNQARRERLKEFDLNDVQLARLHGPVGIFIGSRTPPEIAISILAEVVAAKNHVSLPDILQVEGAKAARELAAGTGSSCDT | not soluble |
| MGSDKIHHHHHHMDSYSDVKMGEYEPTWRSGMAKSITFIVTEDCQLRCGYCYIIGKNKFNRMSFTIARTAVDYILHNRALFWEDSVIWDFIGGEPLLEIELIDRICDYIKRRMYELDHPWFNSYRFSFSTNGLLYGTEKVQRFIRKNAHHLSISISIDGTRKKHDAQRVFPDGSGSYDAVVKNVPLWLKQFPNASTKATVAHDDLPLLKESVIHLWQLGLKNVTINLVNENIWEPGDDIIYETQLRELADYIVENDLYDTHNCSFFSKSIGKPLDCKTDNGNWCGSGKMLAIDGDGVFYPCVRFAPYSMRYKPARSIGNCFDGLDMNRVRPFLVLNRSMQSPEECIACDVASGCAWCQGNNYDLAATDTIYQRAVYTCAMHKARVRANRYFGEKLADRLGRERPVEAR | not soluble |
| MGSDKIHHHHHHMDTKQLKQDIIDYAYTIGIDSIGFTTADPFDELKQKLEAYHANGYASGFEESDIALRTEPKLSLPTARSIIAIAVGYPNKLKGAPKSVRGDRRGLFARASWGQDYHTIMRKRLDMLAAFIESKVPDVEIKSMVDTGVLSDRAVAERAGLGFVGRNGFVINPKLGTWTYLGEMLVSIPFEPDDPLLDSCGDCTICVDRCPTSALVGNGQLNSQKCISFLTQTKGYMPDQYRYKIGNRLYGCDTCQQVCPKNRGINTEQDDIILEPEILKPRLVPLLRMSNKEFKQTYGHLAGAWRGKKPIQRNAILALAHFNEVDAIPELKKVATTDERPMIRATAYWAIGQILGEEARDFINANYDQEDAEVQNEMIKGLDTRRE | not soluble |
| MGSDKIHHHHHHMDTLFKALSDPARRAILDSLRARDGQSLTDLEPQLDMTRFGVMKHLKLLEDAGLIVTKRQGRFKYHYLNPMPLQEMLDRWVAPFLQPQARHLSDLKAKLERSHTMGKPDFMMQTFIRCTQDALWDALTKADQMAAYHFMCNEVRGNASVGNVTEFVLPDGNPMLRQVTTELDPKSRIAATFEPMFMGPDAPASHMVYLIEPQGETCKLTIEHYDMAPGQEGFAEGWARLASSLKSYLETGKAMKGAA | not soluble |
| MGSDKIHHHHHHMDTQAFKRSLHHSERYNRRGFGRANEVASNLEKAYQSSLIGSIRDNGYVLQHGRLQVKLAEAFGFCWGVERAVAMAYETRRHYPSERIWITNEIIHNPSVNEHLREMDVLFIHAEGGVKDFSCVNDGDVVILPAFGATVQEMELLHERGCHIIDTTCPWVSKVWHTVEKHKKQEFTSIIHGKVKHEETLATSSFAGTYLVVLDLDEAQLVADYILGQGDRAAFMKRFAKACSANFDPDQDLQRLGVANQTTMLKSETEEIGRLFERTMLRKYGPIELNKHFLSFNTICDATEERQQAMFSLVDEPLDLLVVIGGFNSSNTTHLQEIAISRGIRSFHIDTPERIGDNNSIQHKPLGEDLFIESNFLPAGSVSVGITSGASTPDRVVEHVIQKLIDLTSG | not soluble |
| MGSDKIHHHHHHMDTRTLIYLHQYFSIPTVSGGTRSWEFSTRLVQDKWQVCMFCGDSEIHGIPAVNILKLFNTKNVSFKLNVIPLKYSNYMSFSRRIFAFLSFAVRSSLQVLREEKADLTFATSTPLTIAIPALLRKWLHGTPYIFEVRDLWPEMPIAMKAVRSPLAIFLARQLELIAYQNASHIVALSPGMKEGIVKQGISPEKVEVIPNACDNARFNISETIGLEFLRQHPELSGGPLIVYTGTFGHINGVNYLAYLASHMRNIIPEAKFLVVGSGVCESEVREASCQLGILEKNFWMWPPIPKAEMPALLSACTVATSLFKPIPEMEHNSANKFFDALAAGRPVVINYGGWQKEILEQSGAGISISSNDPKVAAIQLAKFLNSSECLQSAQAAARKLADTVFDRDILYKKLANVFQKVLNETHSDI | not soluble |
| MGSDKIHHHHHHMDVMVRPSGMPAESGQEPMADGPVAAPFMRLSSKLRDDLYEEVRHDKTWHQRLTWSRGEWTPGSLTSLASRFERSLRWNKVKPEKENFDSPRPTIQSQSICREHLTGTAPEFLSEETLRILTEAVGSAQIKEAVIDMECWERTFLNSEGCSVTTQGKWFDFYASYNTGAALVRWRDGTSTQEEVSRLARPPLPILGRGVTWSEPRTIDTVRYDLVLLSPTASSVVIHELIGHGCEHFREKIVGLRVGPEELRVVAFPKNGSGFDDEGTPSEEIVLVENGIVRHAVRDRATGGMAPFSGLTKVASHGVKPGSRCTHLKAEGESSQEGVTGVPAERTVWIEHFSAANYHSGRAFFRSGLAWVGSREELLYPLMPFTMSIDIYELASLLWHLDGQTERARSGLCNKDGEFLPTFNFAPKIALRPVVSIRP | not soluble |
| MGSDKIHHHHHHMDYRKLPHGNEKVSTIGIGSGSLKETTSKEIEDIVTYSMEEGVNLIDTVMYDTTAAEPINNALKGHRDDMLMQIHLGVWYPKGTYSRTRVPRNVKKGFEQELKKYSTNYADIGLISYVDRVKDFEKIMSNGIFDYAKKLKQDGTIRYLGISSHSEEICKLFIETGEIDVIMFSINAAYDFKPSWGKLNLKNERMELYQECEKQGVALTVMKAYGGGQLLNEKTSPFNHAMTVPQCIQYALDRPGVVSCISGVSSKADLDEALKYYSTSEKDRDYSFIASLPHRDIMGTCIYCNHCQPCPSGIDIGIVNKYLDLAKAGDELAKDHYLKLSKNANDCTNCGVCEKNCPFHVDIRGRMLKAKNYFDKTNSVKK | not soluble |
| MGSDKIHHHHHHMEASFDIALASAYVNAHMYSQGLHVSRVAAKDSDFQGVSEKRYEIKDPKEMSRLIKKIGALFGSPLVRIVKLNPEWSYEHAPGDGRGYKYGEPVDIPEHWQYGIIMGIPLSWETREGAPSFFHTFEGYGNASMHCARMAEFVKKLGYPARENSPHARYEYIMPPHMVAAGIGEQGRLGVVVTPEFGPNFRPSMVVTNMPLEPDKPIDVGIRKFCMNCKICADQCPSGSISFDGPKEINGRGYDGWQINASTCHNFWMSVPNGGCRVCLAVCPFSKESNWLHTTARDIAVRERTGITASTLTWMEKAFYGVNTPEHYHYKEGTRQFDYLVGEKPWFFESKDFLKEN | not soluble |
| MGSDKIHHHHHHMEDLYLECPGCDEVTLHTVLKEKESKKHLKITVKCQECGTVHDIEKNFKLKDIKIVISRYDESEQSVLQIATDEILKVEDVILAFDESVEITALETEDSRRVSSSAAQDLKMIWARSIDVPKKVGISINSRESTYSFNILVPQDYVFEEKKIYRAGRDFFRIKQIKTEKGNFSRELARKIKRIYGEPVKPLRDYTDLTDYML | not soluble |
| MGSDKIHHHHHHMEEHFLYVPYYNRTRRIRVLLPKDYYTDTWDSYAVLYMHDGQNIFYSKESYSGYSWKIIPTIKHHKEFPKIIIVGIDNSGVDRLDEYGPWRTDVGSSPEIKKCGGKGMEYGKWVVEIVKPFIDQHYRTKPQKEHTLLAGSSMGGIITAYMGSAYPQIFGHLGVFSLASWFSEKDFLHFIHHNPIDKNSKVFIQVGTKEGDDVDSLFISNMNQAYIDCTLHYYQALLRTGHPLDNIRLRMMANEIHHEKHWADHFVEFLHFSLL | not soluble |
